For data set [1], the system named is PNA-induced glycopeptide bundle in DPPC bilayer membrane. The data set can be described thus: QCM binding isotherm, PNA-induced glycopeptide bundle. As to conditions: QCM method. The source says:
(§1) We determined binding amounts of proteins to the induced glycopeptide bundles by QCM measurements. […] The molecular weights of PNA and ConA were 98,000 [27] and […] [33], respectively, assuming that they formed tetramers.
We attempted quantitative analysis of the binding isotherms obtained from the QCM and electrochemical measurements. The curves in Figure 5 and Figure 7 were obtained by curve-fitting the experimental values using the Langmuir binding isotherm. It can be seen that both curves are in good agreement with the experimental values. […] In the electrochemical measurement, the value of ΔI corresponds to the amount of the closed channel in the formed complex between the protein and glycopeptide bundle that acted as an ion channel. ΔImax corresponds to the total channel amount. Therefore, we used ΔI and ΔImax as the binding amount and saturated binding amount, respectively, for the Langmuir binding isotherm.
(§2) For the binding isotherm parameters obtained by the QCM measurements, the saturated binding amount, Wmax, for the protein used to induce the glycopeptide bundle was slightly larger, but a systematic relationship could not be seen in the binding constants, K. However, in the parameters obtained from the electrochemical method, the binding constant, K, to the target protein used to induce the glycopeptide bundle acting as a channel, was higher than that of other proteins, and the ΔImax value corresponding to the saturated binding amount was also remarkably larger. In addition, the selective detection of the target protein to the DPPC bilayer membrane with the target protein-induced glycopeptide bundle was evaluated from the ratio to the saturated binding amounts of other proteins. For example, the value of the selectivity of PNA to ConA, of 1.34, in the QCM method of the PNA-induced sensing membrane was obtained from Wmax, PNA/Wmax, ConA.
We previously reported that heating a vesicle containing a peptide above its gel–liquid crystal transition temperature, Tc, increases the fluidity of the lipid bilayer membrane and allows the peptide to easily diffuse laterally through the membrane. At this time, if a protein that specifically interacts with the sugar chains at the terminal of the glycopeptides is present, the glycopeptides are re-arranged in the membrane, and form specific binding site to the target protein on the glycopeptide bundle. The target protein was added to aqueous solution containing DPPC vesicle with glycopeptides and a spacer peptide in the bilayer membrane. The molar ratio of the added protein to the glycopeptides was 2. The Tc of DPPC is 41 °C [41]. The vesicle solution was incubated at 60 °C above Tc for 15 min to form a glycopeptide bundle. […]

For data set [2], the system named is ConA-induced glycopeptide bundle in DPPC bilayer membrane. Put plainly: Electrochemical detection (peak current response, channel blockage), ConA-induced glycopeptide bundle. Type of data set: binding. The conditions noted are these: Electrochemical method, Langmuir fit, ±5 mV triangular voltage, 11.24 Hz, 0.1 M HEPES-Tris pH 7.4, 0.1 M KCl.
Text: (§3) We attempted to detect the protein using the sensing membrane using the electrochemical method. From the simulation, the value of the increase in the current before and after protein addition at the peak voltage, ΔI, was proportional to the fraction of the closed channel that is protein bound glycopeptide bundle (Figure A4).
The curves in Figure 5 and Figure 7 were obtained by curve-fitting the experimental values using the Langmuir binding isotherm. […] In the electrochemical measurement, the value of ΔI corresponds to the amount of the closed channel in the formed complex between the protein and glycopeptide bundle that acted as an ion channel. ΔImax corresponds to the total channel amount. Therefore, we used ΔI and ΔImax as the binding amount and saturated binding amount, respectively, for the Langmuir binding isotherm [36].
At this time, if a protein that specifically interacts with the sugar chains at the terminal of the glycopeptides is present, the glycopeptides are re-arranged in the membrane, and form specific binding site to the target protein on the glycopeptide bundle. The target protein was added to aqueous solution containing DPPC vesicle with glycopeptides and a spacer peptide in the bilayer membrane. The molar ratio of the added protein to the glycopeptides was 2. […] The vesicle solution was incubated at 60 °C above Tc for 15 min to form a glycopeptide bundle. […]
The conditions of data set [3]: cited from earlier work. The source says: This implies that the proteins with the same sugar binding sites can be selectively recognized if their 3D-structures are different. […] The PNA-induced glycopeptide bundle has a spatial arrangement of galactose corresponded to its binding sites in PNA. Two ... || We used PNA (Wako Pure Chemical Industrials, Ltd., Osaka, Japan) and ConA (CALBIOCHEM, San Diego, CA, USA) as the target proteins.

Data set [4] has as its system PNA-induced glycopeptide bundle in DPPC bilayer membrane. The class given is binding. As to conditions: Electrochemical method.
Text: The response current waves were very similar to those derived according to Equation (7) based on the equivalent circuit in Figure A2. The equivalent circuit was a parallel circuit consisting of a capacitor (DPPC bilayer membrane; Cmemb), a resistor (glycopeptide bundle not bound to the target protein as an open channel; Ropen), the serial circuit of a capacitor (bound target protein on glycopeptide bundle; Cprotein), and a resistor (target protein bound to the glycopeptide bundle as a closed channel; Rclose). First, we verified whether the electrochemical properties of the DPPC bilayer membrane with a target protein-induced glycopeptide bundle could be expressed by the proposed equivalent circuit. […] The sensing membrane was used containing the PNA-induced glycopeptide bundle, and the added protein was PNA. In the simulation, the resistances, Ropen = 6.00 × 10^4 Ω and Rclose = 1.73 × 10^4 Ω, and capacitances, Cmemb = 1.00 × 10^−6 F and Cprotein = 3.00 × 10^−6 F, were held constant. Furthermore, x (=ΔI/ΔImax) was calculated from the ratio of the current changes, ΔI (Figure A4), between before and after the protein was added at peak voltage applied, and the saturated current changes, ΔImax (Table 2); this is described below.
as §3
We attempted quantitative analysis of the binding isotherms obtained from the QCM and electrochemical measurements. The curves in Figure 5 and Figure 7 were obtained by curve-fitting the experimental values using the Langmuir binding isotherm. […] In the electrochemical measurement, the value of ΔI corresponds to the amount of the closed channel in the formed complex between the protein and glycopeptide bundle that acted as an ion channel. ΔImax corresponds to the total channel amount. Therefore, we used ΔI and ΔImax as the binding amount and saturated binding amount, respectively, for the Langmuir binding isotherm [36].
The subject of data set [5] is ConA-induced glycopeptide bundle in DPPC bilayer membrane. Put plainly: QCM binding isotherm, ConA-induced glycopeptide bundle. The conditions noted are these: QCM method, Langmuir fit, 25 °C.
Text: as §1
We attempted quantitative analysis of the binding isotherms obtained from the QCM and electrochemical measurements. The curves in Figure 5 and Figure 7 were obtained by curve-fitting the experimental values using the Langmuir binding isotherm. It can be seen that both curves are in good agreement with the experimental values. […]
as §2, with “For example, the value of the selectivity of PNA to ConA, of 1.34, in the QCM method of the PNA-induced sensing membrane was obtained from Wmax, PNA/Wmax, ConA.” left out

Setting [6] is: PNA-induced glycopeptide bundle in DPPC bilayer, Langmuir fit, 25 °C.
Setting [7] is: PNA-induced bundle, ratio of ΔImax.
Setting [8] is: PNA-induced glycopeptide bundle in DPPC bilayer, Langmuir fit, ±5 mV triangular voltage, 11.24 Hz, 0.1 M HEPES-Tris pH 7.4, 0.1 M KCl.

“Also recorded” adds a separate entry of the source. Where two headings read alike, the source gives them in different places.

B1: PNA: peanut lectin with specific binding site for galactose (protein, UniProt P02872 24-273, looked up)
Galactose-binding lectin: AETVSFNFNSFSEGNPAINFQGDVTVLSNGNIQLTNLNKVNSVGRVLYAMPVRIWSSATGNVASFLTSFSFEMKDIKDYDPADGIIFFIAPEDTQIPAGSIGGGTLGVSDTKGAGHFVGVEFDTYSNSEYNDPPTDHVGIDVNSVDSVKTVPWNSVSGAVVKVTVIYDSSTKTLSVAVTNDNGDITTIAQVVDLKAKLPERVKFGFSASGSLGGRQIHLIRSWSFTSTLITTTRRSIDNNEKKIMNMASA
For B1, the “Selectivity of PNA to BSA” value is 2.47 in data set [1] (PNA-induced bundle, ratio of Wmax) and 17.8 in data set [4] (setting [7]). The “Binding preference in QCM (in words)” value in data set [1] (PNA-induced glycopeptide bundle) was “preferentially bound”. Besides, the “Binding constant, K” value amounted to 8.2e+08 M⁻¹ in data set [1] (setting [6]), 1.1e+09 M⁻¹ in data set [2], 2.1e+09 M⁻¹ in data set [4] (setting [8]) and 9.5e+08 M⁻¹ in data set [5]. Further, the “Saturated binding amount, Wmax” value in data set [1] (setting [6]) worked out at 0.47 ng; in data set [5], 0.21 ng. In addition, the “Saturated current change, ΔImax” value in data set [2] is 0.035 μA; in data set [4] (setting [8]), 0.41 μA. Besides, the Sugar binding specificity entry in data set [3] is listed as “specific binding sites for galactose”. Besides, the “Selectivity of PNA to ConA” value in data set [4] (setting [7]) amounted to 9.53. Moreover, the “Current response / recognition (in words)” value in data set [4] (PNA-induced sensing membrane) is “specific response; also recorded: very large current responses”.

Values taken from paper PMC7795492, “Protein Sensing Device with Multi-Recognition Ability Composed of Self-Organized Glycopeptide Bundle” (International Journal of Molecular Sciences, 2020).
